From the DeepSol protein solubility set

Assay: soluble on expression in E. coli; label from the status in PepcDB or PDB records

Sequence | soluble on expression in E. coli
MVPVVALVGRPNVGKSTLFNRLTRTRDALVADFPGLTRDRKYGRAEIEGREFICIDTGGIDGTEDGVETRMAEQSLLAIEEADVVLFMVDARAGLMPADEAIAKHLRSREKPTFLVANKTDGLDPDQAVVDFYSLGLGEIYPIAASHGRGVLSLLEHVLLPWMEDLAPQEEVDEDAEYWAQFEAEENGEEEEEDDFDPQSLPIKLAIVGRPNVGKSTLTNRILGEERVVVYDMPGTTRDSIYIPMERDGREYVLIDTAGVRKRGKITDAVEKFSVIKTLQAIEDANVVMLVIDAREGISDQDLSLLGFILNSGRSLVIVVNKWDGLSQEVKEQVKETLDFRLGFIDFARVHFISALHGSGVGNLFESVREAYDSSTRRVGTSMLTRIMTMAVEDHQPPLVRGRRVKLKYAHAGGYNPPIVVIHGNQVKDLPDSYKRYLMNYFRKSLDVMGSPIRIQFKEGENPYANKRNTLTPTQMRKRKRLMKHIKKNK | not soluble
MGSDKIHHHHHHMETQQLLSIYPQATISPRPSVAKNMVCVAIDAGKYICIDTTNLSNRELSLLELLTHTKSNATTGDAWSEFLTGRHTTAPQTTAKKLQILQFRVHFTERHADRSQWLSAIADTFEHVLHRAFITADSGYLLLTESLTDTSADLASLLALIDNDFYTNTHLFIGSTHRSSQDLPTTFALEQQLFSQNQQDTIVTLSSSLLPFLVNQHQPELQALRNSLSLDSDNKQLIRALYHTQGNVRQAASKLFLHRNTLLYRIEKFERCNGLNLKNMDDLVYCYLLTLGQVINQVEK | not soluble
MSRQACKKSFSCGSQGFSGHSAVVSGSSRSSCVARSGAASGGACGFRSGAGSLGSHSLYSLGGSKSISISVAAGGSRAGGFSGGRSSCGSGFGSGYGGSLGGSRGMGAGFGGPSGFGGAGGFGRPGSFGPGSCPGGIQEVTINQSLLQPLNVEIDPQIGQVKAQEREQIKTLNNKFASFIDKVRFLEQQNKVLETKWELLQQQTIRSGSGPQNLEPFFESCISCLRKQLDSLLGAKGSLEGELKSMQDLVEDFKKKYEEEINRRTAAENEFVGLKKDVDGAFMNKVELQAKVDSLTDEINFLRTLYDMELSQIQSHVSDTSVVLSMDNNRCLDLDSIIAEVKAQYEDIAQKSKAEAEALYQTKLGELQTTAGRHGDDLRSTKSEIMDLNRMIQRLRAEIENVKKQNTNMQTSIAEAEQRGERALKDADTKFQYLQVALQKAKEDMARLLKEYQELMNVKLALDVEIATYRKLLEGEECRLSGEFQNAVSISVVSNVTSTSSSGSFRGTGGSNYGGDSSGRSGGSSSSSSRGSSSRGSSGSRLGSGGSISVSQQRMGFNSGGSQTSVGSSYKSGRGGSSSVQFSQTTSSSQQRSK | soluble
PREVLTGGHSVSAPQENRIYVMDSVFMHLTESRVHVYDYTNGKFLGMVPTAFNGHVQVSNDGKKIYTMTTYHERITRGKRSDVVEVWDADKLTFEKEISLPPKRVQGLNYDGLFRQTTDGKFIVLQNASPATSIGIVDVAKGDYVEDVTAAAGCWSVIPQPNRPRSFMTICGDGGLLTINLGEDGKVASQSRSKQMFSVKDDPIFIAPALDKDKAHFVSYYGNVYSADFSGDEVKVDGPWSLLNDEDKAKNWVPGGYNLVGLHRASGRMYVFMHPDGKEGTHKFPAAEIWVMDTKTKQRVARIPGRDALSMTIDQQRNLMLTLDGGNVNVYDISQPEPKLLRTIEGAAEASLQVQFHPVGGT | soluble
GPGSMGTRQSSASAAPAPQASNGALHLNKLNVPTPPRIAATESPFGSNTPLAKTPTPTAATATATAAVSGEHAKRFQEALRVDSVDMALLRELSWQGCPVALRYEAWMFLTGCWTAQAATRQATVLRRRVEYAAYIHSSYGIVDWDAVCAMVDSGVDTAVHRSTLKLLEHTADAPQVAPPSGTSHSLLRVAPLTTGDSTAMAAKEAAAALPPSLSQRPDGRQSASLPLEDVRSRLPQNTSGSDAPQPSQLSPPQSADIRSASPSLGIVPAPSDSSFRASASAGFTDTAGTGPASHPSIFAPPLPGFATLGLSNVVAATAAPPAASGGAGGATGHQLSASTMLGSKELQTLKQIRKDIPRMSGGHCYLRHPRVQGSIERILFIWSLRHPACGYVQGMNDLVVPFMGVVLGYRFCPTHSVTELHAYTEDIFDDLWSVSAVSVTQWINEVEADVYWMTSYLLNTMQDNYTSSHAGITSMMRHLAAVVQVADPPLYHRLVNVLQLHFEQFSFRWMNCLLIRELTETQSLRLLDAYLSDEERRWSVTHVYVCAALLLRWGSQLMAFCEDYISVMKLLQEPPTEQLSLRDMQDVLSEGFVLQNLYEASLKRLSTTAE | not soluble
MSSPSSASESDSSQMSLLATPPVAIRRPLPYPRDIISSPLEVATPVTVSPTDFMPIRELVTTPYHISTPVLITPVDARSISREIVRVNRIRRVRTRQASRSVFNSVRRRLSMITANRTEIQMNTPQTLPRSKRIDNTSTAMEPVSSNAFQKIISEILNNSPACTETINSTIIPSNSSNCAKLREFNRLESIGIAQMAVENENEILEALDFIEWNIRLMSCESDYIDKVLEDLENEKLNKQNKWERIELILSLIQD | not soluble
MAHHHHHHMLNITRLRNLPEDLFEVDRRQKNGSNQSGKGWPQHKELIFDFTSLVRAYNQNKFEHLTDTFNNNRILISELVLHQLDEKNKVVRSTDAANAQEDDFHPVRLRDLINFLVTNMTESWLEFQRKGTQEDKQFTQLRCLNENVETPLRLISYALYKKRQGKDVLLVTSDSGLKCEAGLNSIDSQSIENIG | not soluble
MSPKFAADLKKTIYDNMTFDPKHYGGRWNILQDHGTSHLSIVDSERNAVSMTTTVNAYFGSLILSPSTGILLNNEMDDFSMPANTSANSPPPAPANFVRPLKRPLSSMTPTIILKDGNLKAAVGASGGSMIPAGTMEVLLNHFVKNMDPLSSVMAPRVYHQLIPNVVQYENWTTVTGDHFELDAATRADLRRKGHVLEPLAGGTISQLVVDDVERHGGLTAVSDPRKGGFPAGY | soluble
MGSDKIHHHHHHMLAGFAAAKAPEIDPALVDTLVAQIMQQADRHAEQSQKPDGQAIRNDAVRRLQTLEVLKNRALKEGLDKDKDVQNRFKIAEASFYAEEYVRFLERSETVSESALRQFYERQIRMIKLQQVSFATEEEARQAQQLLLKGLSFEGLMKRYPNDEQAFDGFIMAQQLPEPLASQFAAMNRGDVTRDPVKLGERYYLFKLSEVGKNPDAQPFELVRNQLEQGLRQEKARLKIDAILEENGVKP | not soluble
MEYGVLSWWDYGNWIVYVGKRPAVSNNFQTGVEDSANFLLTDSEEEAKTIVEKLKVKYVMTDTLMAEGKFSSITSLAGKEIGEYYEVETVKGDTGLRTVATPKQALLQTQVYKLHKLDGTSLGHFRLVHESAVNSTDDGNSKENTVKVFEYVKGATLEHHHHHH | soluble
MGSDKIHHHHHHMSTPVLNLDPDTLLMSSKDARAAAAPYAAEYQGRGPFNYGGYDNFLNPEILERVREELKQLPEAANSYDRPQERLKTSYVPERLPMYTRQLFYALNSRPMLAFIEELTGIKGLIPDPYFAGGGVHVVANGGHLDIHADFNHHAGLNLERRVNLLIYLNKDWREEYGGSFEVWDENMAGKLASYVPLFNRMCMFSTSSESWHGNPEPVNHPDGEPRMSIALYYYTATWDSTRKSHTTLFKPRPGTKDQRDRQVARRELLQDLLPPVLHRKLAWRLEKLGF | not soluble
MKQDVILVLDCGATNVRAIAVDRQGKIVARASTANASDIAAENSAWHQWSLDAILQRFADCCRSLSSALSECVVRGITVTTFGVDGALVDAQGKLLYPVISWKCPRTAAVMETIERFISPRQLQTLSGVGAFSFNTLYKLVWLKENHPRLLEQAHCWLFISSLINHRLTGEFTTDITMAGTSQLLDIHQRDFSPEILQATGLARRLFPRIVEAGAPIGTLQTDAARLLGLPAGVPVISAGHDTQFALFGAGAQQGEPVLSSGTWEILMVRSGQVDTSLLSQYPGSTCELDSQSGLYNPGMQWLASGVLEWVRKLLWTPETPWQTLIDEARAIPAGAEGVRMQCDLLACQNAGWQGVTLNTTRGHFYRAALEGLTAQLQRNLRTLEKIGHFNATELLLVGGGSRNALWNQIKANQLDIPIKVLDDAETTVAGAAMFGWYGVGEFSSPEQARAQVNYQYRYFWPQTEPEIIEGV | not soluble
MSLPNSEDLRKPDAQREVGRHYPVTLDNQLVSTPEEEVIAPPSVMLRWETYQVANGESAALLFQRAGLSSRVLYELTSSNSDINNQLSKLMPKDELKFGFDKDNQLVQLKRTISPYETFVVTRSDSGFTSEFDKKEVTFQLNYAEAKITSNFWNAGVTAGLSANQIIELANMFGWDIDFALDIREGDQFKLLYQEKIVEGSVIGRGNIIAATFINQGSTFTAILDDNTGNYYDQNGRAMKKAFLRSPLDFRRVSSNFNPRRLHPVTGQIKAHRGTDYVAPVGTPIWAAGDGVVEKSSYNQFNGNYVYIRHSNTYITKYLHLQRRLVKTGERVKQGQTIGTLGGTGRVTGPHLHYEFLVNGIHKNPRTVELPQAQSLTGKAKETFIANAKQRMEKLERYSQLLYANQEGHHHHHH | soluble
MITPKVLSGFKDRLPKDAIQKAQLLAKVSVVFQSFGFVPIETPHLEYAQTLLPDASSDIQKEIYRFKDHGDRDVALRFDLTVPLARFVSLHHQTLGMPFKRYAIGNVFRGERAQKGRYREFTQCDFDFIGSESLVCDAEIIQVIVASLKALDLEDFCVSINHRKILNGICEYFGISQVNEALRIVDKLEKIGLNGVEEELKKECGLNSNTIKELLELIQIKQNDLSHAEFFEKIAYLKDYNENLKKGIQDLERLYQLLGDLQISQNLYKIDFSIARGLGYYTGIVYETTLNEMKSLGSVCSGGRYDHLTKNFSKENLQGVGASIGIDRLIVALSEMQLLDERSTQAKVLIACMHEEYFSYANRLAESLRQSGIFSEVYPEAQKIKKPFSYANHKGHEFVAVIGEEEFKSETLSLKNMHSGMQLNCLSFLKALEIIGENDEDL | not soluble
MADVDELEDPMEEMTSYTFARFLRSPETEAFVRNLDRPPQMPAMRFVYLYCLCKQIQEFSGETGFCDFVSSLVQENDSKDGPSLKSIYWGLQEATDEQRTVLCSYVESMTRGQSENLMWDILRNGIISSSKLLSTIKNGPTKVFEPAPISTNHYFGGPVAFGLRCEDTVKDIVCKLICGDASANRQFGFMISPTDGIFGVSLDLCVNVESQGDFILFTDRSCIYEIKCRFKYLFSKSEFDPIYPSYTALYKRPCKRSFIRFINSIARPTVEYVPDGRLPSEGDYLLTQDEAWNLKDVRKRKLGPGHDLVADSLAANRGVESMLYVMTDPSENAGRIGIKDRVPVNIFINPRHNYFYQVLLQYKIVGDYVRHSGGGKPGRDCSPRVNIVTAFFRKRSPLDPATCTLGSDLLLDASVEIPVAVLVTPVVLPDSVIRKTLSTAAGSWKAYADNTFDTAPWVPSGLFADDESTP | soluble
MGSDKIHHHHHHMLSAMYLIDAFFSRQNNQFHLEQQSHCVNQIIEQWRYNGQIIGREIPQFVAEQKNQQGLAVRVTCPEQTSLLAEFNNQPVNDALQTAEKCGVSFESFHIVAEDLNSEITATETPAWQLLYTTYLQSCSPLQSGESLQPIPLYKQLKNIPHLAMDLVKWQENWQACDQLQMNGSVLEQQALVQISDTQSTLFKHGYHLTQEIERHSGIPTYYYLYRIGGKSCEAELQSRCPLCKRKWTLSHPLFDFLYFKCDHCRLVSNLSWHWQ | not soluble
SDDTLFQLKFTAKQLEKLAKKAEKDSKAEQAKVKKALQQKNVECARVYAENAIRKKNEGVNWLRMASRVDAVASKVQTAVTMKGVTKNMAQVTKALDKALSAMDLQKVSAVMDRFEQQVQNLDVHTSVMEDSVSSATTLTTPQEQVDSLIVQIAEENGLEVLDQLSQLPEGASAVGESSVRSQEDQLSRRLAALRN | soluble
